Results: patent publication US20160185837A1 (Medimmune Limited, priority 2013, published 2016)

Experiments:
PK by Fc Detection = test: PK by Fc Detection
Protocol: Table printed on a drawing sheet, FIG. 3A-C
Title: PK by Fc Detection
(§1) Circles: IV injection of 1 mg/kg, squares: subcutaneous injection of 1 mg/kg. Pharmacokinetic parameters Cmax, bioavailability (F %) and half-life T1/2 are compared in panel C.
(§2) Circles: IV injection of 1 mg/kg, squares: subcutaneous injection of 1 mg/kg. Pharmacokinetic parameters Cmax, bioavailability (F %) and half life T112 are compared in panel F.
First reader's note: Panel C of FIG. 3A-C; the title 'PK by Fc Detection' is printed over the whole sheet, including plot panels A and B.

PK by Activity = test: PK by Activity
Protocol: Table printed on a drawing sheet, FIG. 3D-F
as §1, §2
First reader's note: Panel F of FIG. 3D-F; the pharmacokinetic parameters were derived from plasma levels measured by activity (sheet heading 'PK by Activity').

[1] = molecular target: T1, human GLP-1 receptor (hGLP-1r) (Homo sapiens, UniProt P43220); test: BSA-cAMP assay, cells expressing human GLP-1 receptor; assay type: cell-based; conditions: Batch 1; BSA-cAMP assay; read-out: hGLP1r cAMP activity EC50
T1 construct: expressed in transfected cells
Protocol: (§3) One basic cAMP assays was performed, differing in the medium used for the assay, the “BSA-cAMP assay”:
(§4) BSA-based assay medium: 0.1% bovine serum albumin (BSA) in
(§5) In certain aspects, the assay can also be carried out in medium supplemented with serum albumin that corresponds to the receptor being tested, e.g., human serum albumin for testing cAMP activity at hGIPr or hGLP-1r, rat serum albumin for testing cAMP activity at rGIPr or rGLP-1r, and so on. […] All sample dilutions were made in duplicate.
(§6) A frozen cryo-vial of cells expressing the receptor of interest was thawed rapidly in a water-bath, transferred to pre-warmed assay media and spun at 240×g for 5 minutes. Cells were re-suspended in assay buffer at an optimized concentration (e.g., hGLP-1r and hGIPr cells at 0.5×10^5 cells/ml).
(§7) To this, 5 μL cell suspension was added and the plates incubated at room temperature for 30 minutes.
(§8) cAMP levels were measured using a commercially available cAMP dynamic 2 HTRF kit (Cisbio, Cat #62AM4PEJ), following the two step protocol as per manufacturer's recommendations. In brief; anti-cAMP cryptate (donor fluorophore) and cAMP-d2 (acceptor fluorophore) were made up separately by diluting each 1/20 in conjugate & lysis buffer provided in the kit. 5 μL anti-cAMP cryptate was added to all wells of the assay plate, and 5 μL cAMP-d2 added to all wells except non-specific binding (NSB) wells, to which conjugate and lysis buffer was added. […] Data was transformed to % Delta F as described in manufacturer's guidelines and then transformed to percent activation of maximal native agonist response and analysed by 4-parameter logistic fit to determine EC50 values.
(§9) We used unconstrained 4 parameter logistic fit of data, curve mid-point to determine EC50. This was tested on two occasions, not two batches.

[2] = molecular target: T2, mouse GIP receptor (mGIPr) (Mus musculus, UniProt Q0P543); test: BSA-cAMP assay, cells expressing mouse GIP receptor; assay type: cell-based; conditions: Batch 1; BSA-cAMP assay; read-out: mGIPr cAMP activity EC50
T2 construct: expressed in transfected cells; host or cells: HEK293s or CHO cells
T2 sequence (Q0P543 19-460): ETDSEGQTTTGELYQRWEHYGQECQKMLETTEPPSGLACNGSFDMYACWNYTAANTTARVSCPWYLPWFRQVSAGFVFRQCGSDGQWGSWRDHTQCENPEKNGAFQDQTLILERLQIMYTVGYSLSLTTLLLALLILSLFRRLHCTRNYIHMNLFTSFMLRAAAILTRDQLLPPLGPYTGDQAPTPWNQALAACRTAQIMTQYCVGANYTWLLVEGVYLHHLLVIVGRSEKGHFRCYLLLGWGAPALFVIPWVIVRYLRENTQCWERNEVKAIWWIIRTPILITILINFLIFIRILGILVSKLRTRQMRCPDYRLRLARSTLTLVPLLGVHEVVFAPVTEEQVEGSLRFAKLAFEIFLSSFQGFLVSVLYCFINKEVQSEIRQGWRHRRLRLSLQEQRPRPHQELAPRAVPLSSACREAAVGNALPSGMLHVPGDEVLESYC
Protocol: as §3, §4, §5, §6, §7, §8, §9
(§10) In order to be able to carry out in vivo studies in rodents, IP088 was tested for potency against the mouse receptors mGIPr and mGLP-1r as well as the rat receptors rGIPr and rGLP-1r, using cells expressing the respective receptors in the cAMP assay described above.

[3] = molecular target: T3, human glucagon receptor (GCGr) (Homo sapiens, UniProt P47871); test: BSA-cAMP assay, cells expressing human glucagon receptor; assay type: cell-based; conditions: Batch 1, read-out: hGCGr cAMP activity EC50
T3 construct: expressed in transfected cells; host or cells: HEK293s or CHO cells
Protocol: as §3, §4, §5, §6, §7, §8, §9

[4] = molecular target: T4, rat GLP-1 receptor (rGLP-1r) (Rattus norvegicus, UniProt P32301); test: BSA-cAMP assay, cells expressing rat GLP-1 receptor; assay type: cell-based; conditions: Batch 1; BSA-cAMP assay; read-out: rGLP1r cAMP activity EC50
T4 construct: expressed in transfected cells; host or cells: HEK293s or CHO cells
T4 sequence (P32301 22-463): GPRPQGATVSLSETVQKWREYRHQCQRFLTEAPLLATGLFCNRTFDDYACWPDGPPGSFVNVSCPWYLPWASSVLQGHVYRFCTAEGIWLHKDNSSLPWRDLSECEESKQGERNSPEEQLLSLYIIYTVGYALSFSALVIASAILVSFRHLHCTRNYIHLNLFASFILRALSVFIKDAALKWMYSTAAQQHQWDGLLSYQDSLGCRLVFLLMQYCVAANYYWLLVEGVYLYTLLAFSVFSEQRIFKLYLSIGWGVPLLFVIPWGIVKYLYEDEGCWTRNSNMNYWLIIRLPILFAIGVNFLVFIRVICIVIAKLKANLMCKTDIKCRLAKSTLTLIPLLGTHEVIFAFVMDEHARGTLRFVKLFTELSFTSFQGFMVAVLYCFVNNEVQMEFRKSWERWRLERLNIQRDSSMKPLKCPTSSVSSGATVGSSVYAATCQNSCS
Protocol: as §3, §4, §5, §6, §7, §8, §9, §10

[5] = molecular target: T5, mouse GLP-1 receptor (mGLP-1r) (Mus musculus, UniProt O35659); test: BSA-cAMP assay, cells expressing mouse GLP-1 receptor; assay type: cell-based; conditions: Batch 1; BSA-cAMP assay; read-out: mGLP1r cAMP activity EC50
T5 construct: expressed in transfected cells; host or cells: HEK293s or CHO cells
T5 sequence (O35659 22-463): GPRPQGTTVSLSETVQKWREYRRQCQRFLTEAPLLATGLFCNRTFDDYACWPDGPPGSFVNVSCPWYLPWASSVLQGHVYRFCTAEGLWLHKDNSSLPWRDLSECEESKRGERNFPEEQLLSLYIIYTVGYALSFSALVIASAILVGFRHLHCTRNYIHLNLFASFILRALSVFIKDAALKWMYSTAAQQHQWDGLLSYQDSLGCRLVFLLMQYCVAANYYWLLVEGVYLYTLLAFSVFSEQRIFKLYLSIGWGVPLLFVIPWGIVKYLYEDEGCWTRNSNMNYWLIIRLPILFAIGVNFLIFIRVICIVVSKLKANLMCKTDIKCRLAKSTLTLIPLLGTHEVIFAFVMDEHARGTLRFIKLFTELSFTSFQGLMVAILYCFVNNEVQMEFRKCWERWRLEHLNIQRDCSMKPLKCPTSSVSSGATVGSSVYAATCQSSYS
Protocol: as §3, §4, §5, §6, §7, §8, §9, §10

rat GIP receptor (rGIPr) = molecular target: T6, rat GIP receptor (rGIPr) (Rattus norvegicus, UniProt P43219); test: BSA-cAMP assay, cells expressing rat GIP receptor; assay type: cell-based; conditions: Batch 1; BSA-cAMP assay; read-out: rGIPr cAMP activity EC50
T6 construct: expressed in transfected cells; host or cells: HEK293s or CHO cells
T6 sequence (P43219 19-455): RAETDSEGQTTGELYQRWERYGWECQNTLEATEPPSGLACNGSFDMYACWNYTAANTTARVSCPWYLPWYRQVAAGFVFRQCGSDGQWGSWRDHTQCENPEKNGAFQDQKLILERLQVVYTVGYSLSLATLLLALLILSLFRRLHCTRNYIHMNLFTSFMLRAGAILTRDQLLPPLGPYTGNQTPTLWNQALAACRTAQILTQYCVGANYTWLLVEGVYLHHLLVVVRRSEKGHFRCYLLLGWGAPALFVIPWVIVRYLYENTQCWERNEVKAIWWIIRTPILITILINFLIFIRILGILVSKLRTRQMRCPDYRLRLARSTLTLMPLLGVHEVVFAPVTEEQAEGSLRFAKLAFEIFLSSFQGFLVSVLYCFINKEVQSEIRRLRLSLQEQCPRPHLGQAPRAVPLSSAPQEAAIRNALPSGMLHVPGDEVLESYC
Protocol: as §3, §4, §5, §6, §7, §8, §9, §10

[6] = molecular target: T7, human GIP receptor (hGIPr) (Homo sapiens, UniProt P48546); test: BSA-cAMP assay, cells expressing human GIP receptor; assay type: cell-based; conditions: Batch 1; BSA-cAMP assay; read-out: hGIPr cAMP activity EC50
T7 construct: expressed in transfected cells
T7 sequence (P48546 22-466): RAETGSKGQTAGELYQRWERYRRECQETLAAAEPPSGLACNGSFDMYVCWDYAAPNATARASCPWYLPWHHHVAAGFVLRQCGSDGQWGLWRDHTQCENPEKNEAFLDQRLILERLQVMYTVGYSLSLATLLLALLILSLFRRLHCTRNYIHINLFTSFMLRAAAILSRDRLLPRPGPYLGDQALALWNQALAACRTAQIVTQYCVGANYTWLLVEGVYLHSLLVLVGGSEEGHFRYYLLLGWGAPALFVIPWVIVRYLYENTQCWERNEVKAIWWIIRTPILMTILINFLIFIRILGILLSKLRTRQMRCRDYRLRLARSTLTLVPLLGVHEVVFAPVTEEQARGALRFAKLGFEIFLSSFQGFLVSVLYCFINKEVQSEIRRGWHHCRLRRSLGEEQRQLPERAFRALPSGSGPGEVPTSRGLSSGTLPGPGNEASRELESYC
Protocol: For human GIPr, two different lines were used, shown as “hGIPr” and “hGIPr (C3)” in Table 11.
as §3, §4, §5, §6, §7, §8, §9

T1 sequence (P43220 24-463): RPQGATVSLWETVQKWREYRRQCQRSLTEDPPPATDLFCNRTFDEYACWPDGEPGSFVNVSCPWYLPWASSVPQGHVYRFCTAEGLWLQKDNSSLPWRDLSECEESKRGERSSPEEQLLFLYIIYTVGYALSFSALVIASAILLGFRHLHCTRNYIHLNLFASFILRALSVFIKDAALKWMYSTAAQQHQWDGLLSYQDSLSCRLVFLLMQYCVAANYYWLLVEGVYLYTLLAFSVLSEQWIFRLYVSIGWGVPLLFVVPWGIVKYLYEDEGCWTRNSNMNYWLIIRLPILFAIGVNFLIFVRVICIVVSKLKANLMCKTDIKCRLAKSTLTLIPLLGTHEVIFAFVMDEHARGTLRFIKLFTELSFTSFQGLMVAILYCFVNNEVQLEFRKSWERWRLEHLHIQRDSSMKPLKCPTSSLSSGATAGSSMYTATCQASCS
T3 sequence (P47871 26-477): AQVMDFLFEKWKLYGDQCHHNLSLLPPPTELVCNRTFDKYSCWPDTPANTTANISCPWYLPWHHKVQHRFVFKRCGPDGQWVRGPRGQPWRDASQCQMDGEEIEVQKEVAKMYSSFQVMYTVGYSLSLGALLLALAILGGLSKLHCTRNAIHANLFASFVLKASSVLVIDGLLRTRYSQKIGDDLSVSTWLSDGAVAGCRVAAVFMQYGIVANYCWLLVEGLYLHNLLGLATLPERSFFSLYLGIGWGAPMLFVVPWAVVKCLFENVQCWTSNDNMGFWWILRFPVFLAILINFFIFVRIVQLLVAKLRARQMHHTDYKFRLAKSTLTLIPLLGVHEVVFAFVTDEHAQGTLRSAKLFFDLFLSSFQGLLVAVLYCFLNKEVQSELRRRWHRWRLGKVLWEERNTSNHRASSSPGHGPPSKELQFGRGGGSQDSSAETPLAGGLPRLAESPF

Substance | Cmax (PK by Fc Detection) [ng/mL] | F (%) (PK by Fc Detection) | t½ (PK by Fc Detection) [h] | Cmax (PK by Activity) [nM] | F (%) (PK by Activity) | t½ (PK by Activity) [h] | EC50 [1] [nM] | EC50 [2] [nM] | EC50 [3] [nM] | EC50 [4] [nM] | EC50 [5] [nM] | EC50 (rat GIP receptor (rGIPr)) [nM] | EC50 [6] [nM]
GLP-1a-Fc (HGEGTFTSDVSSYLEEQAAKEFIAWLVKGR; /note=“Description of Artificial Sequence Synthetic GLP-1 Analog polypeptide”) | 8500 | 59 | 79 | 24 | 93 | 30 |  |  |  |  |  |  | 
IP359: Fc fusion, IgG1-TM, SEQ ID NO:366; agonist peptide YSEGTFTSDYSKLLEEEAVRLFIEHLLAGG (YSEGTFTSDYSKLLEEEAVRLFIEHLLAGGGGGGSGGGGSGGGGSGGGGSATHTCPPC) |  |  |  |  |  |  | 0.061 | 8.3 | 43 | 0.04 | 0.2 | 0.039 | 0.011
IP368 (YSEGTFTSDYRQAIDRQAIDEFIAWLLKGGGGGGGSGGGGSGGGGSGGGGSACPPC) |  |  |  |  |  |  | 230 | 1.3 | > 4860 | 370 | > 4860 | 0.22 | 0.2
IP380: Fc fusion, IgG1-fusion, SEQ ID NO:376; agonist peptide YSEGTFTSDYSKLLEEEAVRLFIEFLLAGG (YSEGTFTSDYSKLLEEEAVRLFIEFLLAGGGGGGSGGGGSGGGGSGGGGSATHTCPPC) |  |  |  |  |  |  | 0.11 | 6.6 | 25 | 0.031 | 1.2 | 0.06 | 0.0084
IP381: Fc fusion, IgG1-fusion, SEQ ID NO:377; agonist peptide YSEGTFTSDYSKLLEEEAVRLFIEYLLAGG (YSEGTFTSDYSKLLEEEAVRLFIEYLLAGGGGGGSGGGGSGGGGSGGGGSATHTCPPC) |  |  |  |  |  |  | 0.091 | 5.4 | 18 | 0.027 | 0.73 | 0.045 | 0.0099
IP385 (YSEGTFTSDYSIYLDRQAIDEFIAWLLKGGGGGGGSGGGGSGGGGSGGGGSACPPC) |  |  |  |  |  |  | 0.47 | 18 | > 1560 | 0.16 | 30 | 1.1 | 0.012
IP386 (YSEGTFISDYSIAMDKIHQQDFVNWLLAQKGGGGGSGGGGSGGGGSGGGGSACPPC) |  |  |  |  |  |  | > 9130 | 0.03 | 540 | > 16600 | > 16600 | 0.0085 | 0.0034
IP395 (YSEGTFTSDYSKLLERQAIDEFIAHLLKGGGGGGGSGGGGSGGGGSGGGGSACPPC) |  |  |  |  |  |  | 0.12 | 3.3 | 380 | 0.016 | 3.8 | 0.063 | 0.012
